From patent publication US20250154581A1 (BGI SHENZHEN, published 2025) come the findings set out here.

One assay concerns the target T1, Strep-MspA (Mycolicibacterium smegmatis (strain …, UniProt A0QR29 28-211)).
T1 construct: Subunit co-expressed with 6*His-Spycatcher003-MspA; Called simply MspA where the 1:7 complex is described
As to the kind of experiment: co-expression, Strep column co-purification, nickel column imidazole gradient and ion exchange separation. Here is the method:
In the present application, an MspA octamer which only contains one molecule of Spycatcher003 was obtained through the following method. First, the bacterial cells co-expressing 6*His-Spycatcher003-MspA and Strep-MspA obtained in the above step 2 (2) were disrupted by high pressure (Lysis Buffer: 150 mM NaCl, 20 mM Tris, 1% DDM) and purified by Strep column (Wash Buffer: 150 mM NaCl, 20 mM Tris, 0.05% Tween 20; Elution buffer: 150 mM NaCl, 20 mM Tris, 10 mM desthiobiotin) to obtain complexes with different ratios of the two proteins. […] From this, the Spycatcher003-labeled MspA octamer was obtained.

For assay [1], the target named is T2, Spycatcher003-MspA(MspA)7 (Mycolicibacterium smegmatis (strain …, UniProt A0QR29 28-211)).
T2 construct: Octamer of one Spycatcher003-MspA and seven Strep-MspA subunits, co-expressed in E. coli; also called Spycatcher003-labeled MspA octamer; MspA octamer formed by Spycatcher003-MspA and MspA in a ratio of 1:7
As to the kind of experiment: mixed 1:1.2 (octamer:Spytag003-DDA), 25 C 30 min, covalent Spytag003/Spycatcher003 coupling; Superose 6 Increase size exclusion chromatography. As to the method:
The Spycatcher003-labeled MspA octamer obtained in the above step 4 was mixed with the Spytag003-DDA obtained in the above step 3 at a ratio of 1:1.2, and reacted at 25° C. for 30 minutes, the Superose 6 increase is used for size exclusion chromatography (Purification Buffer: 150 mM NaCl, 20 mM Tris, 0.05% Tween20) to remove excess Spytag003-DDA protein, and the DDA-Spytag/Spycatcher-MspA complex was collected.

B1: Spycatcher003-MspA (other)
chain: MVTTLSGLSGEQGPSGDMTTEEDSATHIKFSKRDEDGRELAGATMELRDSSGKTISTWISDGHVKDFYLYPGKYTFVETAAPDGYEVATPIEFTVNEDGQVTVDGEATEGDAHTGGSGGSGGSGLDNELSLVDGQDRTLTVQQWDTFLNGVFPLDRNRLTREWFHSGRAKYIVAGPGADEFEGTLELGYQIGFPWSLGVGINFSYTTPNILIDDGDITAPPFGLNSVITPNLFPGVSISADLGNGPGIQEVATFSVDVSGAEGGVAVSNAHGTVTGAAGGVLLRPFARLIASTGDSVTTYGEPWNMN
notes: Subunit expressed as 6*His-Spycatcher003-MspA; also called 6*His-Spycatcher003-MspA
On to B1, for which the binding result with Strep-MspA is given as “binds”.

B2: Spytag003-DDA (enzyme)
chain: RGVPHIVMVDAYKRYKGGSGGSGGSGGSGGSGGSMTFDDLTEGQKNAFNIVMKAIKEKKHHVTINGPAGTGKTTLTKFIIEALISTGGTGIILAAPTHAAKKILSKLSGKEASTIHSILKINPVTYEENVLFEQKEVPDLAKCRVLICDEVSMYDRKLFKILLSTIPPWCTIIGIGDNKQIRPVEPGENTAYISPFFTHKDFYQCELTEVKRSNAPIIDVATDVRNGKWNYDKVVDGHGVRGFTGDTALRDFMVNYFSIVKSLDDLFENRVMAFTNKSVDKLNSIIRKKIFETDKDFIVGEIIVMQEPLFKTYKIDGKPVSEIIFNNGQLVRIIEAEYTSTFVKARGVPGEYLIRHWDLTVETYGDDEYYREKIKIISSDEELYKFNLFLAKTAETYKNWNKGGKAPWSDFWDAKSQFSKVKALPASTFHKAQGMSVDRAFIYTPCIHYADVELAQQLLYVGVTRGRYDVFYV
notes: Expressed from pET.28a(+)-6*His-Spytag003-DDA; also called 6*His-Spytag003-DDA; motor protein Spytag003-DDA
Consider B2, for which the binding result in assay [1] is listed as “binds”.
